Results published in patent US7098012B1, “DNA demethylase, therapeutic and diagnostic uses thereof” (McGill University, priority 1997, dated 2006).

B1: RNase: RNase A (Sigma) used to treat column fractions (protein, UniProt P61823 27-150, looked up)
Ribonuclease pancreatic: KETAAAKFERQHMDSSTSAASSSNYCNQMMKSRNLTKDRCKPVNTFVHESLADVQAVCSQKNVACKNGQTNCYQSYSTMSITDCRETGSSKYPNCAYKTTQANKHIIVACEGNPYVPVHFDASV
B2: proteinase K: proteinase K (Sigma) used to pretreat DNA dMTase (protein, UniProt P06873 106-384, looked up)
Proteinase K: AAQTNAPWGLARISSTSPGTSTYYYDESAGQGSCVYVIDTGIEASHPEFEGRAQMVKTYYYSSRDGNGHGTHCAGTVGSRTYGVAKKTQLFGVKVLDDNGSGQYSTIIAGMDFVASDKNNRNCPKGVVASLSLGGGYSSSVNSAAARLQSSGVMVAVAAGNNNADARNYSPASEPSVCTVGASDRYDRRSSFSNYGSVLDIFGPGTSILSTWIGGSTRSISGTSMATPHVAGLAAYLMTLGKTTAASACRYIADTANKGDLSNIPFGTVNLLAYNNYQA

Test system: DNA dMTase
Assay: Demethylation of [mdC32pdG]n substrate (conversion of mdCMP to dCMP) with additives or pretreatment
Assay type: biochemical, human
Conditions: transformation of mdC to C or release of volatile methyl residues; proteinase K 200 μg/ml 1 h 56° C.; RNase A 100 μg/ml
Method: (A) To assay the conversion of methyl-dCMP (mdCMP) to dCMP we used a previously described method (Szyf et al., 1995). Briefly, α^32P labeled, fully methylated poly[mdC^32PdG]n substrate was prepared as follows. One hundred ng of a double-stranded fully methylated (mdCpdG) oligomer (Pharmacia) were denatured by boiling, which was followed by partial annealing at room temperature. The complementary strand was extended with Klenow fragment (Boehringer Mannheim) using methyl-5-dCTP (mdCTP, 0.1 mM) (Boehringer Mannheim) and […] (100 μCi, 3000 Ci/mmol), and the unincorporated nucleotides were removed by chromatography through a NAP-5 column (Pharmacia). The NAP-5 chromatography was repeated to exclude minor contamination with unincorporated nucleotides. […] The digestion products were loaded onto a thin layer chromatography plate (TLC) (Kodak, 13255 Cellulose), separated in a medium containing, 132 ml Isobutyric acid:40 ml water:4 ml ammonia solution, autoradiographed and the intensity of the different spots was determined using a phosphorimager (Fuji, BAS 2000). ^32P labeled substrates and tritium labeled substrates were phosphoimaged using BAS 2000 plate and BAS-TR2040 phosphorimager plate respectively. (B) The second method determined removal of methylated residues from methylated DNA by measuring disappearance of ^3H—CH3 or ^14C—CH3 from the reaction mixture. […]

| Molecule | DNA dMTase activity after enzyme treatment |
| --- | --- |
| B1 | not inhibited but rather enhanced |
| B2 | abolished |
